B1: TPR 5TU (parent)
chain: GGAUCUUCUCGAUCUAACAAAAAAGACAAAUCUGCCACAAAGCUUGAGAGCAUCUUCGGAUGCAGAGGCGGCAGCCUUCGGUGGCGCGAUAGCGCCAACGUUCUCAACUAUGACACGCAAAACGCGUGCUCCGUUGAAUGGAGUUUAUCAUG

These results are taken from the RNAGym collection of RNA variant scans (doi:10.1073/pnas.2313332121).

Fewer inactive variants are shown than the library holds.

The variants in this data set derive from B1. The data set can be described thus: polymerase ribozyme fitness, log enrichment relative to wild type (log ratio); higher = more active; in vitro selection for triplet polymerase activity. Summed up: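 Both subunits of a heterodimeric triplet polymerase ribozyme were given their own mutant library, built by PCR and transcribed. Each library was annealed with a biotinylated primer, the partner subunit and triplets, incubated frozen at −7 °C, and its extended constructs gel-excised, captured on streptavidin beads and amplified by RT-PCR, all in one round done in triplicate. Fitness is the logarithm of genotype enrichment relative to wild-type enrichment, with replicates averaged by inverse-variance weighting. That logarithm is base 2, and Illumina-sequenced genotypes needed ≥10 input reads and ≥1 read per output.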
Take U6G A28G G58U C85U: the “polymerase ribozyme fitness (log ratio)” value is at most -4.2.
For U6G A29G, the “polymerase ribozyme fitness (log ratio)” value was -3.97.
With U6C A47C C85A the figure was -3.96; with C5U U45G A119U, -0.808.
With U6A C85U, the “polymerase ribozyme fitness (log ratio)” value is -0.519.
With U6A G86C the figure was -2.98; with U6C A24U A40C U56A A73U C76G C129U, at most -4.2; with U6C A21U U101A U104A U148A, at most -4.2.
With U6C C27U G50C A52G G58A C87U the figure was at most -4.2; with U6A A12C A16U A19U C75G G84C A97G A98U U102A G124U, at most -4.2; with U6G U31G U61A C95A G136A, -1.38.
To U6G G59C C85U G92U U127A belongs at most -4.2.
In the case of U6C U13G C43G C76U U90A U151G, the “polymerase ribozyme fitness (log ratio)” value was at most -4.2.
To U6A A24U G81U C85G G140U belongs at most -4.2; to U6A G11A U45A U53G C76U U90G C118U, at most -4.2; to U6G A19G A30U A119G, at most -4.2.
For U6A C27A C85G, the “polymerase ribozyme fitness (log ratio)” value was at most -4.2.
To U6G A122C belongs -0.304.
With U6G A24U A119U G136U the figure was -3.74; with C5U C54G, -0.591.
With U6A G11U A23C G25A C36A G50C C125U the figure was at most -4.2.
With U6G A120G, the “polymerase ribozyme fitness (log ratio)” value was -0.399.
On to U6G A22U C85A, for which the “polymerase ribozyme fitness (log ratio)” value was -0.601.
To C5U G74A A91U C93G belongs at most -4.2.
To U6C A16G A24U C96A C118U belongs -3.92.
U6A A23C G68U G100U C131U G143U: the “polymerase ribozyme fitness (log ratio)” value is at most -4.2.
To U6A A12U U53A C114U belongs -3.59; to U6A G25U, -1.78; to U6C C85U A121U U135C, -3.27.
With C5U C8U A23C C85U C103A C116U the figure was at most -4.2; with U6C U61A C85U A97C A120G, -3.12.
To U6C C105G U144C G152A belongs -3.94.
For C5U A19C A39G G80C C87U C105G U135A, the “polymerase ribozyme fitness (log ratio)” value is at most -4.2.
Turning to U6G C10G C14A A49C C85A C93U C116U, the “polymerase ribozyme fitness (log ratio)” value is at most -4.2.
To U6G G59C belongs 0.358; to U6G A16U G58A G141U, -1.34.
For U6G C85U, the “polymerase ribozyme fitness (log ratio)” value is -0.35.
To U6G C85A belongs -1.09; to U6C U13C C14U G34A G80C A91G, at most -4.2; to U6G G128U, -3.77.
To C5U C85G U104C belongs -3.03; to U6A A22C C75U G84A A97G C108G A113C C116A U135G, at most -4.2; to U6C A73U G84A G100U G124A C125G U145G, at most -4.2.
With U6G C8A G48A U56G C75U G80C G83U G92U C93A C99U G100U the figure was at most -4.2.
U6A A52C G81U C85G: the “polymerase ribozyme fitness (log ratio)” value is -3.49.
With U6G C10G G50C U55A G58A C72G C95U C96U U144G U148A the figure was at most -4.2; with U6C G11A A37G A52G G86A G100A, at most -4.2.
In the case of U6C A49C U55A U104C U146C, the “polymerase ribozyme fitness (log ratio)” value is at most -4.2.
C5U U13A C14A U53A U55A C76A A120U G124C: the “polymerase ribozyme fitness (log ratio)” value is at most -4.2.
To U6A U7G C36U C85A U144A belongs at most -4.2; to U6C U61A A73C C85G, at most -4.2; to U6A G86A C87G, at most -4.2.
To U6G C10A A16G A20C U53A C54G A64U C85U G86A A113U U145C belongs at most -4.2; to C5U A73U G83A, -0.929; to U6C C54U C76U, -2.15.
To U6C C32A A49U G70U U82G C87U C105G belongs at most -4.2; to C5U A37U C69U C95U, -1.02; to U6G U44G A47U U53C A64C C103A, at most -4.2.
On to U6A U61A C93A, for which the “polymerase ribozyme fitness (log ratio)” value is at most -4.2.
To U6G G92A belongs -2.59.
As for U6G A20U C93A C116A U135A, the “polymerase ribozyme fitness (log ratio)” value was -3.29.
To C5U A22C C85A belongs -9.25e-05; to U6A C51U A52U U56A G83U G84A C114U, at most -4.2.
With U6G A12U A20U C51A C96A G100U C118A U148C the figure was at most -4.2.
With U6G C114A the figure was -3.22; with U6G G59A G92A C95A C105U, -4.19.
With U6G A73C C99U, the “polymerase ribozyme fitness (log ratio)” value was at most -4.2.
To U6A C79A G86U A89C C103G belongs at most -4.2; to U6C A37C C93U, -3.12; to U6C A89G C96U U135C G140U, at most -4.2.
In the case of U6A C87U, the “polymerase ribozyme fitness (log ratio)” value is -0.846.
To U6C U56C A89C A121U belongs -2.59; to U6G G25U G50C G92A, at most -4.2.
With U6A G11A A64C C72U C87U A120G C149A the figure was at most -4.2; with U6G A23U A73G C76A A98G C105G A113C A119G, at most -4.2; with U6G C10U A12U U33G A37U C95A U135A G141U U144C, at most -4.2.
To U6G U31C G50A A147C belongs -2.65.
On to C5U C51A C54G G59C G84A C116G, for which the “polymerase ribozyme fitness (log ratio)” value was -3.05.
To U6G A22C C35A G58C G74U C76U U78C G133U U151C belongs at most -4.2; to U6C C8A U111G G143C, at most -4.2; to C5U A24U C32G U53G C123G A147G U151G, at most -4.2.
To U6G G141A belongs 0.243; to U6G A26G A29C A47U C63U G84A G136U G143C U151A, at most -4.2.
To C5U U15G U33C belongs -4.17; to C5U C27G C95U C96U G141C, at most -4.2; to U6C A17U U33C C51G C57G G83U C95G A98G U127G, at most -4.2.
With U6G U53A, the “polymerase ribozyme fitness (log ratio)” value was -0.949.
With C5U A28U A40U C57U G83C A89G the figure was at most -4.2; with U6A C54U G58C C85A U134C, -1.4; with C5U A40C C54G G92A A121U C132U U146A, at most -4.2.
To C5U C8U G58A A73G C114U A120G belongs -3.02; to U6G C75G U90A G92U, at most -4.2; to C5U U13C C85U U101G C105A U109G A110G, at most -4.2.
With C5U A23C A40C A49U G70C G94A the figure was at most -4.2; with U6C A24C G86U U104G C125U, at most -4.2; with U6G C96U, -0.759.
As to U6C G11C A16C G58C A142C, the “polymerase ribozyme fitness (log ratio)” value is -3.7.
To C5U G84A A142U belongs -0.976; to C5U G92A, -1.32; to U6C C38A G59U C69A, -2.2.
Consider C5U C54U U82A C95G A147U, for which the “polymerase ribozyme fitness (log ratio)” value was -1.27.
For U6C U82A C99U G136U, the “polymerase ribozyme fitness (log ratio)” value was -3.43.
In the case of C5U A28U C51G A52C G67A G94C, the “polymerase ribozyme fitness (log ratio)” value is at most -4.2.
To C5U A20C C43G C76G C108G C114U A120U U146G belongs at most -4.2.
With U6G A16C A22U C51U C76U C85A C118U the figure was -3.97; with U6G C10G C87G, at most -4.2; with C5U C8G A137U U145A A147C, at most -4.2.
To C5U G84A A150C belongs at most -4.2; to U6C G48A A106G, -3.13; to U6A A12G A17G A40G C96A A137G, -3.74.
In the case of U6A A23U A30U G46A A47C, the “polymerase ribozyme fitness (log ratio)” value is at most -4.2.
With U6G U13G U44A A60G C69G C93A C118A the figure was at most -4.2; with U6G A21U A26G A40C A66G A107U U135A G141A, at most -4.2.
To U6A C85U G140C belongs -3.99; to U6G C87U C131U, 0.928.
With U6G U31G G84U the figure was -0.345; with C5U A22U C27G C36G G83U C103G C116U G136U, at most -4.2; with U6C C129G, -3.13.
Take U6G A47C C87A: the “polymerase ribozyme fitness (log ratio)” value was at most -4.2.
With C5U G84U U148G the figure was at most -4.2; with C5U U82A C85A C99A U101G G140C, at most -4.2.
Regarding C5U U7C A21U G86A C131A, the “polymerase ribozyme fitness (log ratio)” value is -4.16.
With C5U G92A C114U the figure was -3.86.
To C5U C96U belongs 0.36.
With C5U A21G G59C C93G, the “polymerase ribozyme fitness (log ratio)” value is -1.3.
With U6G A39C C85A A98G G126C the figure was -3.91; with U6G G86C U135G, at most -4.2.
With U6G G83A the figure was -0.0531; with C5U A21U, 1.4.
To U6G A20U A41U U44A U55G G83A G88U A98U A121G U145A belongs at most -4.2; to U6C A47C G81C C87G C96U, at most -4.2.
For the variant C5U U15A A17G C18U G42A U53A U55A A60C G68C C79U A91C A97G, the “polymerase ribozyme fitness (log ratio)” value is at most -4.2.
With U6G A12U A28C G65U U127G the figure was at most -4.2; with U6G G100A A107U A113U, at most -4.2; with U6G G65U G71C G94A C103G A122G, at most -4.2.
With U6A C27U A41C U55A G62C G71C C85A G143U the figure was at most -4.2; with U6G G86U G152U, -4.12; with U6G U7C U55A U135A, -4.01.
To C5U A28C A64U G84A belongs at most -4.2; to U6A C18G U56A A106G, -0.358.
For U6G G68A, the “polymerase ribozyme fitness (log ratio)” value was -3.62.
To U6A U7C G83A C125A belongs -3.64.
Take U6A A12C C87G A89U: the “polymerase ribozyme fitness (log ratio)” value is -3.27.
To U6A A26C A98U G136U belongs -4.09.
With C5U C51A the figure was -0.999; with U6A C8A A19U A20U C72U U77A U101A, at most -4.2; with U6A C87A A137C, at most -4.2.
To U6G A121U belongs -0.506; to U6G C35U G58C C96U A113C U135C A147U, at most -4.2; to C5U A64C G84A A122G G124U U144G U151A, at most -4.2.
Regarding U6G C51U G84A U146G, the “polymerase ribozyme fitness (log ratio)” value is -1.28.
With U6G G50U C95U the figure was 0.0133; with C5U C87U, 0.457.
To U6G U7C A20U A39G A40C G42C G59A G92U C93G A115U C116U belongs at most -4.2; to U6G A73U, -0.322; to U6A U55A, -1.4.
With U6A U55G the figure was -0.118; with U6G A49C C51U G88A A107U A142G, at most -4.2; with U6A G68A G83C U90G C118U, at most -4.2.
On to U6C G83C A91C U145C, for which the “polymerase ribozyme fitness (log ratio)” value is at most -4.2.
To U6A C38U U44A U82G C85U C95A U101G belongs at most -4.2.
As to U6A C38G G42C G86U C93U U127A, the “polymerase ribozyme fitness (log ratio)” value was at most -4.2.
With U6A U7G U31C G34A A41U the figure was -3.68; with C5U G11A A29U G70C G84A C96U, at most -4.2; with U6C, -0.0891.
With U6G the figure was 0.0167; with U6A, 0.197.
